According to patent US20260216242A1 (ALMAC DISCOVERY, published 2026):
Numbering of substitutions follows the chain as printed. Names and notes keep the numbering of the source.

T1: human ALPL on CHO cells (human, UniProt P05186 18-501)
T1 construct: whole, on cells; also called CHO-ALPL
T1 sequence (looked up): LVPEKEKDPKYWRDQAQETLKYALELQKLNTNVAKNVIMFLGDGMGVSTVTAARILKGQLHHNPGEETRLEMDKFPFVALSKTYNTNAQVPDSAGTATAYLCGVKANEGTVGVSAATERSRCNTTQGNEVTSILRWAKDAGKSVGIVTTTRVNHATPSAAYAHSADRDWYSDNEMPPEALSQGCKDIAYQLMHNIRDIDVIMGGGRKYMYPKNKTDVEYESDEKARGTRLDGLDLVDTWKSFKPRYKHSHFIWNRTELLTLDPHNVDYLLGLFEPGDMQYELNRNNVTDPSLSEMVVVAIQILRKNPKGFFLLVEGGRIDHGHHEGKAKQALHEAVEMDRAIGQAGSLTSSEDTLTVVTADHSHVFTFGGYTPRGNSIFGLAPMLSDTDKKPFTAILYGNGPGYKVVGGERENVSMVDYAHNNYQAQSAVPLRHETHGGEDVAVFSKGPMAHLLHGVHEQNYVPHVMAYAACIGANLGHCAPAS

T2: human ALPI on CHO cells (human, UniProt P09923 20-503)
T2 construct: whole, on cells; also called CHO-ALPI
T2 sequence (looked up): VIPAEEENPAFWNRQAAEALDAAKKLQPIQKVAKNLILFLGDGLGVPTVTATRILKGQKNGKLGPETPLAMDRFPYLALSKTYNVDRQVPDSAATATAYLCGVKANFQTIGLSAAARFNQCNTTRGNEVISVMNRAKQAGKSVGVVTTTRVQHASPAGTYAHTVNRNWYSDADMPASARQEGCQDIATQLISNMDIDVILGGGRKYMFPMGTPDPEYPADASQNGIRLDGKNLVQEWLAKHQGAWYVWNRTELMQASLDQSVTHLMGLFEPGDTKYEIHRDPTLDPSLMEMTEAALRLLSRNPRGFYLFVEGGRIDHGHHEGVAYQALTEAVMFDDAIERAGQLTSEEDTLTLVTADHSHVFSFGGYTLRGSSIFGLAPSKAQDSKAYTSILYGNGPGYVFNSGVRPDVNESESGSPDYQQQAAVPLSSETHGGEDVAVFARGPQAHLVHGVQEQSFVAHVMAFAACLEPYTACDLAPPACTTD

T3: human ALPI (intestinal alkaline phosphatase) expressed on the surface of CHO cells (human, UniProt P09923 20-503)
T3 construct: whole, on cells; The cell-surface form has none; also called CHO-ALPI; hALPI
T3 sequence (looked up): T2 sequence (looked up)

T4: human ALPL (tissue non-specific alkaline phosphatase) expressed on the surface of CHO cells (human, UniProt P05186 18-501)
T4 construct: whole, on cells; The cell-surface form has none; also called CHO-ALPL; hALPL
T4 sequence (looked up): T1 sequence (looked up)

B1: D10-E06-hFc-vcPAB-MMAE [G4S]1 (Fc fusion, DAR 4)
chain 1: QVQLVESGGGLVQPGGSLRLSCAASGSIFSVNTMGWYRQAPGKQRDLVAVATSGGTIHYADSVKGRFTISRDNAKNTVYLQMNSLKPEDTAVYYCNLVVPYGMIAGDHDYWGQGTKVTVSSGGGGSEPKSSDKTHTCPPCPAPELLGGPCVFLFPPKPKDTLMISRTPEVTCVVVDVSHEDPEVKFNWYVDGVEVHNAKTKPREEQYNSTYRVVSVLTVLHQDWLNGKEYKCKVSNKALPAPIEKTISKAKGQPREPQVYTLPPSRDELTKNQVSLYCLVKGFYPSDIAVEWESNGQPENNYKTTPPVLDSDGSFFLYSKLTVDKSRWQQGNVFSCSVMHEALHNHYTQKSLCLSPGK
chain 2: QVHLVESGGGLVQAGGSLRLSCAASRRSFSEYAMGWFRQAPGKEREFVAAIGWSGVIEYADSVKGRFTISRDNAKDTVYLQMNSLKPEDTAVYYCAAGLGIRVVSQTPAYWGQGTQVTVSSGGGGSEPKSSDKTHTCPPCPAPELLGGPCVFLFPPKPKDTLMISRTPEVTCVVVDVSHEDPEVKFNWYVDGVEVHNAKTKPREEQYNSTYRVVSVLTVLHQDWLNGKEYKCKVSNKALPAPIEKTISKAKGQPREPQVYTLPPSRDELTKNQVSLTCLVKGFYPSDIAVEWESNGQPENNYKTTPPVLDSDGSFFLTSKLTVDKSRWQQGNVFSCSVMHEALHNHYTQKSLCLSPGK
modifications: MC-vc-PAB-MMAE on Cys 239 and Cys 442 (EU numbering)
notes: Biparatopic drug conjugate, DAR 4
B2: D10-E10-hFc-vcPAB-MMAE [G4S]1 (Fc fusion, DAR 4)
chain 1: B1 chain 1
chain 2: QVQLVESGGGLVQAGGSLRLSCAVSGRALSDYNIGWFRQAPGKEREFVARKTWDGSSTRYDDSVKGRFTVSIEDAKNTAYLQMSSLKTEDTAVYYCAAGRYSRARGWEYDYWGQGTQVTVSSGGGGSEPKSSDKTHTCPPCPAPELLGGPCVFLFPPKPKDTLMISRTPEVTCVVVDVSHEDPEVKFNWYVDGVEVHNAKTKPREEQYNSTYRVVSVLTVLHQDWLNGKEYKCKVSNKALPAPIEKTISKAKGQPREPQVYTLPPSRDELTKNQVSLTCLVKGFYPSDIAVEWESNGQPENNYKTTPPVLDSDGSFFLTSKLTVDKSRWQQGNVFSCSVMHEALHNHYTQKSLCLSPGK
modifications: MC-vc-PAB-MMAE on Cys 239 and Cys 442 (EU numbering)
notes: as for B1
B3: D10-F05-hFc-vcPAB-MMAE [G4S]1 (Fc fusion, DAR 4)
chain 1: B1 chain 1
chain 2: B2 chain 2 with V24A, L29F, S30G, K51R, E73D, D74N, S84N, A104V
modifications: MC-vc-PAB-MMAE on Cys 239 and Cys 442 (EU numbering)
notes: Biparatopic drug conjugate, DAR 4; also called #679
B4: D10 E10-hFc (S239/442C T366Y/Y407T), [G4S]3 linker, MC-vc-PAB-MMAE conjugate, #636 (Fc fusion, DAR 4)
chain 1: QVQLVESGGGLVQPGGSLRLSCAASGSIFSVNTMGWYRQAPGKQRDLVAVATSGGTIHYADSVKGRFTISRDNAKNTVYLQMNSLKPEDTAVYYCNLVVPYGMIAGDHDYWGQGTKVTVSSGGGGSGGGGSGGGGSEPKSSDKTHTCPPCPAPELLGGPCVFLFPPKPKDTLMISRTPEVTCVVVDVSHEDPEVKFNWYVDGVEVHNAKTKPREEQYNSTYRVVSVLTVLHQDWLNGKEYKCKVSNKALPAPIEKTISKAKGQPREPQVYTLPPSRDELTKNQVSLYCLVKGFYPSDIAVEWESNGQPENNYKTTPPVLDSDGSFFLYSKLTVDKSRWQQGNVFSCSVMHEALHNHYTQKSLCLSPGK
chain 2: QVQLVESGGGLVQAGGSLRLSCAVSGRALSDYNIGWFRQAPGKEREFVARKTWDGSSTRYDDSVKGRFTVSIEDAKNTAYLQMSSLKTEDTAVYYCAAGRYSRARGWEYDYWGQGTQVTVSSGGGGSGGGGSGGGGSEPKSSDKTHTCPPCPAPELLGGPCVFLFPPKPKDTLMISRTPEVTCVVVDVSHEDPEVKFNWYVDGVEVHNAKTKPREEQYNSTYRVVSVLTVLHQDWLNGKEYKCKVSNKALPAPIEKTISKAKGQPREPQVYTLPPSRDELTKNQVSLTCLVKGFYPSDIAVEWESNGQPENNYKTTPPVLDSDGSFFLTSKLTVDKSRWQQGNVFSCSVMHEALHNHYTQKSLCLSPGK
modifications: MC-vc-PAB-MMAE on Cys of S239C and S442C (EU numbering)
notes: Biparatopic knob-into-hole VHH-hFc heterodimer, DAR 4; also called D10-E10 hFc-vcPAB-MMAE; D10-E10 hFc-vc-MMAE
B5: D10-E10 hFc-vcPAB-MMAE [G4S]3 (Fc fusion, DAR 4)
chain 1: B4 chain 1
chain 2: B4 chain 2
modifications: MC-vc-PAB-MMAE on Cys 239 and Cys 442 (EU numbering)
notes: as for B1
B6: D10-F05 hFc-vcPAB-MMAE [G4S]3 (Fc fusion, DAR 4)
chain 1: B4 chain 1
chain 2: B4 chain 2 with V24A, L29F, S30G, K51R, E73D, D74N, S84N, A104V
modifications: MC-vc-PAB-MMAE on Cys 239 and Cys 442 (EU numbering)
notes: Biparatopic drug conjugate, DAR 4; also called #637
B7: D10 F05-hFc (S239/442C T366Y/Y407T), [G4S]3 linker, MC-vc-PAB-MMAE conjugate, #637 (Fc fusion, DAR 4)
chain 1: B4 chain 1
chain 2: B4 chain 2 with V24A, L29F, S30G, K51R, E73D, D74N, S84N, A104V
modifications: MC-vc-PAB-MMAE on Cys of S239C and S442C (EU numbering)
notes: Biparatopic knob-into-hole VHH-hFc heterodimer, DAR 4; also called D10-F05 hFc-vcPAB-MMAE; D10-F05 hFc-vc-MMAE

Experiments:
human ALPL on CHO cells = biological target: T1, human ALPL on CHO cells; test: flow cytometry, CHO cells stably expressing human ALPL; PDC detected with FITC anti-human Ab
Description: (§1) Biparatopic VHH-hFc drug conjugates were assessed for human ALPP, ALPPL2, ALPI and ALPL cell-surface binding by flow cytometry. Binders were screened on CHO cells stably expressing human ALPP, ALPPL2, ALPI or ALPL.
(§2) Cell surface binding of test agents to hALPP isoforms was characterized in four CHO-ALPP isoform transfectant cell lines (CHO-ALPP, CHO-ALPPL2, CHO-ALPI and CHO-ALPL) and the resulting KDapp values determined. Adherent cells were detached from tissue culture flasks by incubating with 0.1% EDTA/PBS solution at 37° C. for […] or until cells detached easily. Cells were re-suspended in ice-cold PBS/2% FCS in 15 ml tubes and centrifuged at 1700 rpm for 5 mins at 4° C. Supernatant was removed and the cell pellet re-suspended in PBS/2% FCS. […] Cells were incubated with 100 μl of test agents at a range of concentrations, plus controls for 1 hr on ice. The sample plate was centrifuged at 1700 rpm for 5 mins at 4° C. The supernatant was removed, and a wash performed by re-suspending the cell pellets in 0.25 mL of ice-cold PBS/2% FCS using a multichannel pipette. Samples were again centrifuged at 1700 rpm for 5 min at 4° C. Supernatant was removed and two further washes performed as described. After the final wash and centrifugation step, excess liquid was removed by blotting the plate on tissue paper. Binding of VHH-hFc agents was determined by adding 100 μl of Fitc-anti-human Ab (ThermoFisher) and incubating for 30 mins on ice in the dark. Wash steps were performed as described previously. All cell pellets were finally re-suspended in 0.28 ml of ice-cold PBS/2% FCS and left on ice in the dark prior to analysis on a Merck-Millipore Guava EasyCyte HT or Thermo Fisher Attune N×T flow cytometer.

human ALPI on CHO cells = biological target: T2, human ALPI on CHO cells; test: flow cytometry, CHO cells stably expressing human ALPI; PDC detected with FITC anti-human Ab
Description: as §1, §2

[1] = biological target: T5, human ALPP (alkaline phosphatase, placental type) expressed on the surface of CHO cells (human, UniProt P05187 23-506); test: flow cytometry on CHO-ALPP cells, apparent KD (KDapp)
T5 construct: also called CHO-ALPP; hALPP
Description: as §1, §2

[2] = biological target: T3, human ALPI (intestinal alkaline …); test: flow cytometry, CHO-ALPI cells
[3] = biological target: T4, human ALPL (tissue non-specific …); test: flow cytometry, CHO-ALPL cells
[4] = biological target: T6, human ALPPL2 (alkaline phosphatase, germ cell type) expressed on the surface of CHO cells (human, UniProt P10696 20-503); test: flow cytometry on CHO-ALPPL2 cells, apparent KD (KDapp)
T6 construct: whole, on cells; The cell-surface form has none; also called CHO-ALPPL2; hALPPL2
Description: as §1, §2

[5] = biological target: T6, human ALPPL2 (alkaline phosphatase, …); test: cell-based or functional assay
[6] = biological target: T4, human ALPL (tissue non-specific …); test: cell-based or functional assay
[7] = biological target: T3, human ALPI (intestinal alkaline …); test: cell-based or functional assay

T6 sequence (P10696 20-503): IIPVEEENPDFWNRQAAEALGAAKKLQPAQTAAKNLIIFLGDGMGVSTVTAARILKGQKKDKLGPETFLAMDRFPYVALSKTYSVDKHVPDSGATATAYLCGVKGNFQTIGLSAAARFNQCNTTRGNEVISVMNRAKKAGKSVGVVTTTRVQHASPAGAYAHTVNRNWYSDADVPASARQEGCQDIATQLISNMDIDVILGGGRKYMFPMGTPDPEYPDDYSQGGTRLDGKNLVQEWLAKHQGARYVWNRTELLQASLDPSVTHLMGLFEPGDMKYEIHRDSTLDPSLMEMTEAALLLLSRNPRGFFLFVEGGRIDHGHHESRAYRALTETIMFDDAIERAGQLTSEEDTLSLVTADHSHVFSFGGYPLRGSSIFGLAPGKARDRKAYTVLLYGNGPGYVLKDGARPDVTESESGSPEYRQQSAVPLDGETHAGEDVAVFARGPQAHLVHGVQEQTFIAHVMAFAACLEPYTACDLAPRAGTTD
T5 sequence (P05187 23-506 limits assumed): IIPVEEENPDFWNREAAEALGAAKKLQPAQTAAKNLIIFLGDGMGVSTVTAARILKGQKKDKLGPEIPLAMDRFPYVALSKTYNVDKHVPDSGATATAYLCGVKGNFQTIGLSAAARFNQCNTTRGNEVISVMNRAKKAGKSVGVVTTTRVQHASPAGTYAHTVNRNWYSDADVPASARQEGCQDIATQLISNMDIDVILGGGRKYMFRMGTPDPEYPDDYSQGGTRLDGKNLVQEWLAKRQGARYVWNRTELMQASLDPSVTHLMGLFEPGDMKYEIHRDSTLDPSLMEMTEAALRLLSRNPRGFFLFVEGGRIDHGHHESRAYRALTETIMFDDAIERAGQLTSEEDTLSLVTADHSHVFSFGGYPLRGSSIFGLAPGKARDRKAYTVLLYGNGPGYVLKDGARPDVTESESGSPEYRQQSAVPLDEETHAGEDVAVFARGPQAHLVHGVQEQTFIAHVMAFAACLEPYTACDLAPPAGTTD

Binder | binding result (human ALPL on CHO cells) | binding result (human ALPI on CHO cells) | Kd [1] [nM] | binding result [2] | binding result [3] | Kd [4] [nM] | IC50 at 96 h, cell-killing of CHO-ALPPL2 cells [5] [nM] | IC50 at 96 h, cell-killing of CHO-ALPL cells [6] [nM] | IC50 at 96 h, cell-killing of CHO-ALPI cells [7] [nM]
B1 | no binding (tested: 350 nM) | no binding (tested: 350 nM) |  |  |  |  |  |  | 
B2 | no binding (tested: 350 nM) | no binding (tested: 350 nM) |  |  |  |  |  |  | 
B3 | no binding (tested: 350 nM) | no binding (tested: 350 nM) |  |  |  |  |  |  | 
B4 |  |  | 6.8 | no binding (tested: 350 nM (highest concentration)) | no binding (tested: 350 nM (highest concentration)) | 4.7 | 12.5 | > 1000 | > 1000
B5 | no binding (tested: 350 nM) | no binding (tested: 350 nM) |  |  |  |  |  |  | 
B6 | no binding (tested: 350 nM) | no binding (tested: 350 nM) |  |  |  |  |  |  | 
B7 |  |  | 7.4 | no binding (tested: 350 nM (highest concentration)) | no binding (tested: 350 nM (highest concentration)) | 3.5 | 13 | > 1000 | > 1000
